Assay results as given in patent US20040224408A1, “THAP proteins as nuclear receptors for chemokines and roles in transcriptional regulation, cell proliferation and cell differentiation” (published 2004).

Assays:
human THAP1 (THanatos …) [1] = target: T1, human THAP1 (THanatos (death)-Associated Protein-1), full length (human, UniProt Q9NVV9 1-213); assay: yeast two-hybrid, pGADT7-THAP1 with pGBKT7-chemokine
T1 construct: also called hTHAP1; FLJ10477
T1 sequence: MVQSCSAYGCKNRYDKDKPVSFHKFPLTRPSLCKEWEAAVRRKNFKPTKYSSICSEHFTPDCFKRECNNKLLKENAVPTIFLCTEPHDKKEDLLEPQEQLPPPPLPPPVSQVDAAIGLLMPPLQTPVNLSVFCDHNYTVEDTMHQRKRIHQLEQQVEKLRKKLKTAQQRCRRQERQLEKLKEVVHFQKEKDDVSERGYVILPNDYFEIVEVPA
Description: […]

[2] = target: T2, Glutathione S-transferase (GST) control protein (pGEX-2T) (UniProt P08515 1-218 = GST); assay: GST pull-down, immobilized GST control, in vitro translated 35S-labelled chemokine
T2 construct: Negative control immobilized on glutathione sepharose; also called GST beads; immobilized GST alone
T2 sequence (P08515 whole entry): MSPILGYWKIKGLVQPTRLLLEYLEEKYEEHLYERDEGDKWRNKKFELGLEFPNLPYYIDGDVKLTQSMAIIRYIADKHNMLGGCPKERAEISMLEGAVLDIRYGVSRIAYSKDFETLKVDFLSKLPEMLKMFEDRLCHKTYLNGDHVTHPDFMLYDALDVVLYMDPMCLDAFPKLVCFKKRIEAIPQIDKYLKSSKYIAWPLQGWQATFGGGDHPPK
Procedure: To confirm the interaction observed in yeast two-hybrid system, we performed in vitro GST pull down assays. THAP1, expressed as a GST-tagged fusion protein and immobilized on glutathione sepharose, was incubated with radiolabeled chemokines that were translated in vitro.
In vitro-translated chemokines were generated with the TNT-coupled reticulocyte lysate system (Promega, Madison, Wis., USA) using as templates pGBKT7-CCL21, -CCL19, -CXCL9, -CXCL10 and CXCL11 chemokine vectors (see Example 32) or pCMV-SPORT6-CCL5 plasmid (Image clone No. 4185200). In vitro-translated IFNγ cytokine was generated similarly using as template plasmid pGBKT7-IFNγ. A 25 μvolume of ³⁵S-labelled chemokine was incubated with immobilized GST-THAP1 or GST proteins overnight at 4° C., in the following binding buffer: 10 mM NaPO4 pH 8.0, 140 mM NaCl, 3 mM MgCl₂, 1 mM dithiothreitol (DTT), 0.05% NP40, and 0.2 mM phenylmethyl sulphonyl fluoride (PMSF), 1 mM Na vanadate, 50 mM β-glycerophosphate, 25 μg/ml chymotrypsine, 5 μg/ml aprotinin, and 10 μg/ml leupeptin. Beads were then washed 5 times in 1 ml binding buffer. Bound proteins were eluted with 2×Laemmli SDS-PAGE sample buffer, fractionated by 10% SDS-PAGE and visualized by fluorography using Amplify (Amersham Pharmacia Biotech). GST/THAP1 specifically bound to chemokines CCL21, CCL19, CCL5, CXCL9, CXCL10 and CXCL11 but not cytokine IFNγ (FIGS. 19 and 20). […] CXCL10 also bound to immobilized GST-THAP1 (indicated by ++ in the column labelled “In vitro binding to GST-THAP1”).

human THAP2 = target: T3, human THAP2 (human, UniProt Q9H0W7 1-228, limits assumed); assay: yeast two-hybrid using Par-4 wild type bait (FIG. 10B)
T3 construct: also called hTHAP2
T3 sequence (Q9H0W7 whole entry): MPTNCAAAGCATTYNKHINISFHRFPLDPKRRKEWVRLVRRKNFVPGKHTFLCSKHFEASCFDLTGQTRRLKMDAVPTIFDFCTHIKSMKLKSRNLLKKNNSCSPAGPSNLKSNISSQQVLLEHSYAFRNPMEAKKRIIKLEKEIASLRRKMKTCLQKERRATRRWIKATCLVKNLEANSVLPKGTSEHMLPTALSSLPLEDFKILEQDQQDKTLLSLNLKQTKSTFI

human THAP3 = target: T4, human THAP3 (human, UniProt Q8WTV1 1-239, limits assumed); assay: as above
T4 construct: also called hTHAP3
T4 sequence: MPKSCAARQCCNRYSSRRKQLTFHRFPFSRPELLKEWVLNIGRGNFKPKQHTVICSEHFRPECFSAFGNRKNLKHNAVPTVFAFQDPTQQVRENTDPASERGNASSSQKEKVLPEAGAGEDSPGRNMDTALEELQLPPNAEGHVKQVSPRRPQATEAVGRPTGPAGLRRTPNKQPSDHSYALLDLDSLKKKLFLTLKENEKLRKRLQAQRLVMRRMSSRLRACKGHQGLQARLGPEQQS

human THAP1 (THanatos …) [3] = target: T1, human THAP1 (THanatos …); assay: yeast two-hybrid, both orientations (His/Ade selection)
Description: We then examined whether the leucine zipper/death domain at the C-terminus of Par4, previously shown to be involved in Par4 binding to WT-1 and aPKC, was required for the interaction between THAP1 and Par4. Two Par4 mutants were constructed for that purpose, Par4A and Par4DD. Par4A lacks the leucine zipper/death domain while Par4DD contains this domain. pGBKT7-Par4A(amino acids 1-276) and pGADT7-Par4A. were constructed by sub-cloning a EcoRI-BglII fragment from pGADT7-Par4 into the EcoRI and BamHI sites of pGBKT7 and pGADT7. Par4DD (amino acids 250-342) was amplified by PCR, using pGBKT7-Par4 as template, with primers Par4.4 (5′-[…]-3′) (SEQ ID NO: 193) and Par4.5, and cloned into the EcoRI and BamHI sites of pGBKT7 and pGADT7 to obtain pGBKT7-Par4DD and pGADT7-Par4DD. Two-hybrid interaction between THAP1 and Par4 mutants was tested by cotransformation of AH109 with pGBKT7-THAP1 and pGADT7-Par4A or pGADT7-Par4DD and selection of transformants by His and Ade double auxotrophy according to manufacturer's instructions ([…] two-hybrid system 3, Clontech). […] Similar results were obtained when two-hybrid experiments were performed in the opposite orientation using Par4 or Par4 mutants (Par4A and Par4DD) as baits instead of THAP1 (FIG. 3A).

human THAP1 (THanatos …) [4] = target: T1, human THAP1 (THanatos …); assay: yeast two-hybrid, BD7-THAP1 with AD7-SLC/CCL21ΔCOOH; identical results in the opposite orientation
Description: For two-hybrid assays, yeast cells were cotransformed with BD7-THAP1 and AD7-SLC/CCL21 or AD7-SLC/CCL21ΔCOOH expression vectors. AD7-SLC/CCL21 or AD7-SLC/CCL21ΔCOOH expression vectors were generated by subcloning BamHI fragment (encoding SLC amino acids 24-134) or BamHI-PstI fragment (encoding SLC amino acids 24-102) from pGKT7-SLC/CCL21 (see example 15) into pGADT7 expression vector (Clontech). Transformants were selected on media lacking histidine and adenine. […] Identical results were obtained by cotransformation of AD7-THAP1 with BD7-SLC/CCL21 or BD7-SLC/CCL21ΔCOOH.

B1: human chemokine ELC/CCL19, mature form (amino acids 22-98) (ligand)
chain: GTNDAEDCCLSVTQKPIPGYIVRNFHYLLIKDGCRVPAVVFTTLRGRQLCAPPDQPWVERIIQRLQRTSAKMKRRSS
notes: The range is stated on the GenBank entry; Tested as a Gal4-BD fusion (pGBKT7-CCL19) and as in vitro translated 35S-labelled protein from that vector; also called MIP3b/CCL19
B1: binds (human THAP1 (THanatos …) [1]); no binding [2].

B2: human chemokine MIG/CXCL9, mature form (amino acids 23-125) (ligand)
chain: TPVVRKGRCSCISTNQGTIHLQSLKDLKQFAPSPSCEKIEIIATLKNGVQTCLNPDSADVKELIKKWEKQVSQKKKQKNGKKHQKKKVLKVRKSQRSRQKKTT
notes: The range is stated on the GenBank entry; Tested as a Gal4-BD fusion (pGBKT7-CXCL9) and as in vitro translated 35S-labelled protein from that vector
B2: binds (human THAP1 (THanatos …) [1]); no binding [2].

B3: human prostate apoptosis response-4 protein (PAR4), full length (other)
chain: MATGGYRTSSGLGGSTTDFLEEWKAKREKMRAKQNPPGPAPPGGGSSDAAGKPPAGALGTPAAAAANELNNNLPGGAPAAPAVPGPGGVNCAVGSAMLTRAPPARGPRRSEDEPPAASASAAPPPQRDEEEPDGVPEKGKSSGPSARKGKGQIEKRKLREKRRSTGVVNIPAAECLDEYEDDEAGQKERKREDAITQQNTIQNEAVNLLDPGSSYLLQEPPRTVSGRYKSTTSVSEEDVSSRYSRTDRSGFPRYNRDANVSGTLVSSSTLEKKIEDLEKEVVTERQENLRLVRLMQDKEEMIGKLKEEIDLLNRDLDDIEDENEQLKQENKTLLKVVGQLTR
notes: Tested as a Gal4-BD (pGBKT7-Par4) or Gal4-AD (pGADT7-Par4) fusion in yeast two-hybrid; also called Par4 wild type
B3: binds (human THAP2); binds (human THAP3); binds (human THAP1 (THanatos …) [3]).

B4: SLC/CCL21ΔCOOH deletion mutant lacking the basic carboxy-terminal extension (ligand)
chain: SDGGAQDCCLKYSQRKIPAKVVRSYRKQEPSLGCSIPAILFLPRKRSQAELCADPKELWVQQLMQHLDKTPSPQKPAQG
notes: Tested as a Gal4-AD or Gal4-BD fusion and as in vitro translated protein; also called SLC/CCL21?COOH
B4: binds (human THAP1 (THanatos …) [4]).
